Positions count from the first letter of the chain named.
Experiments:
[1] = molecular target: T1, human MCAM (antigen of the BLI kinetics in Example 7) (human, UniProt P43121 24-559, limits assumed); test: BLI, ForteBio Octet QK, apparent ka
T1 chain: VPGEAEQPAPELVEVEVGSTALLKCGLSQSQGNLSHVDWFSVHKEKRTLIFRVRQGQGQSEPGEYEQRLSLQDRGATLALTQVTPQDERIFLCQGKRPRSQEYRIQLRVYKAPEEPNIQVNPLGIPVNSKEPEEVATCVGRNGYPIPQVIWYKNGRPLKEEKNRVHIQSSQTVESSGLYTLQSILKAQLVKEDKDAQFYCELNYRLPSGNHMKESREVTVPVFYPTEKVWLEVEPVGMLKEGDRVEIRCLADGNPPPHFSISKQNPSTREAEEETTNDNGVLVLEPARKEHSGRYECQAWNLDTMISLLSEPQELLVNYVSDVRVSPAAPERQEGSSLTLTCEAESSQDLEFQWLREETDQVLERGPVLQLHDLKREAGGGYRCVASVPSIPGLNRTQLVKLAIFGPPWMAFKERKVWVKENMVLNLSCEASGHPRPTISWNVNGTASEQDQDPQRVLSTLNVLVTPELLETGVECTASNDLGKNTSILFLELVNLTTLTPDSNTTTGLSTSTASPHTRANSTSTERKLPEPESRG
Description: (§1) Apparent ka, apparent kd and apparent KD are binding kinetic parameters obtained using ForteBio assay formats.

[2] = molecular target: T1, human MCAM (antigen of the BLI kinetics …); test: BLI, ForteBio Octet QK, apparent KD
Description: as §1

[3] = molecular target: T2, human MCAM C272A mutant (shotgun mutagenesis library, on BHK cells) (human, UniProt P43121 24-646); test: shotgun mutagenesis library, immunofluorescence on BHK cells, 0.5 µg/mL antibody
T2 chain: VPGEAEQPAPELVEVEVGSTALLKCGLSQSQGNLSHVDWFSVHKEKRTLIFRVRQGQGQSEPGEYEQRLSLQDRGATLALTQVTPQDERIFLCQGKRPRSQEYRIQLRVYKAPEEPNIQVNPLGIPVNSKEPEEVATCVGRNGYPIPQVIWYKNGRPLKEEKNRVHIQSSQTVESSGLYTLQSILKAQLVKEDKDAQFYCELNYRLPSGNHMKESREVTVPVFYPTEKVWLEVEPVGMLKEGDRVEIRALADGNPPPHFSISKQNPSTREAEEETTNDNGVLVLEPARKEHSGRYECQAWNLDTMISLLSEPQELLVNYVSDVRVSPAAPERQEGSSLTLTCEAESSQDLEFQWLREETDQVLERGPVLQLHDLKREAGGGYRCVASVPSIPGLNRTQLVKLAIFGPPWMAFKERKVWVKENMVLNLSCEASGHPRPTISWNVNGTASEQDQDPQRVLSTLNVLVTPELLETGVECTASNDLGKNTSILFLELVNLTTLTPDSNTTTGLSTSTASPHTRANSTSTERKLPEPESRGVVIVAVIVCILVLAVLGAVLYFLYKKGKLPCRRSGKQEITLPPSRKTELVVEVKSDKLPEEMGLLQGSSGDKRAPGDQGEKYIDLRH
Method: (§2) Secondary antibodies from Jackson ImmunoResearch were used at 1:400 for MAb and sera detection.
(§3) The mutation library was assayed for surface expression (mouse sera binding) and monoclonal antibody binding, in triplicate. Each raw data point was background-subtracted and normalized to the wild type MCAM reactivity values. The mean monoclonal antibody binding value for each clone is plotted as a function of its mean surface expression value (FIG. 1, gray diamonds). Thresholds of <30% monoclonal antibody reactivity and >50% mouse sera binding were applied to identify clones (FIG. 1, black diamonds) that were negative for monoclonal antibody binding but positive for surface expression.

[4] = molecular target: T3, human MCAM V340A mutant (shotgun mutagenesis library, on BHK cells) (human, UniProt P43121 24-646); test: as above
T3 chain: T2 chain with A249C, V317A
Method: as §2, §3

[5] = molecular target: T4, MCAM Y318A mutant, purified protein from a stable cell line (human, UniProt P43121 24-559, limits assumed); test: ForteBio BLI with purified protein
T4 chain: T1 chain with Y295A
Method: To further confirm the data, stable cell lines expressing I141A, P145V, D216A and Y318A respectively were generated. Fortebio assays were performed with the purified proteins as described above. The control ABX-MA1 antibody bound to wild type MCAM and the MCAM mutants.

kon [1]: 1.41e+06 M⁻¹ s⁻¹
Kd [2]: 0.286 nM
binding result [5]: no binding
B1: mouse anti-human MCAM monoclonal antibody clone 1749.1.3 (antibody, V domains shown)
VH: DVKLVESGGDLVKPGGSLKLSCAASGFTFSSYIMSWVRQTPEKRLEWVATISSGGSSTYYPDSVKGRFTISRDNAKNTLYLQMSSLKSEDTAMYYCTRDDDYDVKVFAYWGQGTLVTVSA
VL: DIVMSQSPSSLAVSAGEKVTMNCKSSRSLLNSRIRKNYLAWYQQKPGQSPKLLIYWASTRESGVPDRFTGSGSGTDFTLTISSVQAEDLAVYYCKQSYNLLTFGAGTKLELK
notes: Mouse hybridoma monoclonal antibody; also called m1749
binding result [3]: no binding (tested: <30% WT)
binding result [4]: no binding (tested: <30% WT)

— patent US20170129954A1 (PROTHENA BIOSCIENCES, published 2017)
